Measurements taken from paper PMC4597910.
Like-named read-outs stand apart in the source and are kept apart here.

Key:
GB1-SRSF1 RRM1+2 [1] = target: T1, GB1-SRSF1 RRM1+2 (UniProt Q07955 16-195); assay: NMR titration
GB1-SRSF1 RRM1+2 [2] = target: T1, GB1-SRSF1 RRM1+2; assay: NMR titration; remark: listed apart in the source

T1 sequence (Q07955 16-195): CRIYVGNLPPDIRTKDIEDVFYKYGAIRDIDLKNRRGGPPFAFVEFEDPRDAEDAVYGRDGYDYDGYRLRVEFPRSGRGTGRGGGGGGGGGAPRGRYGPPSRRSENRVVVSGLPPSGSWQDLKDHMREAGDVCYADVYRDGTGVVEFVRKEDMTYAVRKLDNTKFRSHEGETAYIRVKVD

Row | Binder | binding result (GB1-SRSF1 RRM1+2 [1]) | binding result (GB1-SRSF1 RRM1+2 [2])
1 | UCACUGGA (ssRNA) [UCACUGGA mutant] | binds | –
2 | UCAGAGGA (ssRNA) [WT UCAGAGGA] | – | binds
